Changes are numbered by the printed parent chain.
B1: PGT121.56 (antibody, human IgG1, lambda)
heavy: QMQLQESGPGLVKPSETLSLTCSVSGASISDSYWSWIRRSPGKGLEWIGYVHKSGDTNYSPSLKSRVNLSLDTSKNQVSLSLVAATAADSGKYYCARTLHGRRIYGIVAFNEWFTYFYMDVWGNGTQVTVSSASTKGPSVFPLAPSSKSTSGGTAALGCLVKDYFPEPVTVSWNSGALTSGVHTFPAVLQSSGLYSLSSVVTVPSSSLGTQTYICNVNHKPSNTKVDKKVEPKSCDKTHTCPPCPAPELLAGPDVFLFPPKPKDTLMISRTPEVTCVVVDVSHEDPEVKFNWYVDGVEVHNAKTKPREEQYNSTYRVVSVLTVLHQDWLNGKEYKCKVSNKALPLPEEKTISKAKGQPREPQVYTLPPSREEMTKNQVSLTCLVKGFYPSDIAVEWESNGQPENNYKTTPPVLDSDGSFFLYSKLTVDKSRWQQGNVFSCSVLHEALHSHYTQKSLSLSPGK
light: not shown
B2: PGT121.60 hIgG1/hLambda (antibody)
heavy: B1 heavy with S60N, N68H, V83T, A84G, A85V, N124T
light: not shown

Columns and labels:
Test in all cases: cell-based or functional assay
[1] = molecular target: Env of 92 subtype B viruses
[2] = molecular target: 22 primary HIV-1 isolates or clones (mean over all viruses of Table 13)
[3] = molecular target: HIV-1 Env (gp120) of 4 primary HIV-1 isolates or molecular clones on infected CEM-NKr-CCR5-LucR CD4 T cells

Row | Binder | Coverage (%) [1] | Median IC95 (neutralization) [1] | EC50 (µg/mL), killing of HIV-infected cells (Mean; mean over all viruses) [2] | Emax, killing of HIV-infected cells (Mean; mean over all viruses) [2] | EC50 of killing infected cells, median [3] | proportion of infected cells killed (Emax), median [3]
1 | B1 | 62% | 0.265 mg/L | – | – | – | –
2 | B2 | 59.8% | 0.177 mg/L | 1.03 µg/mL | 56% | > 100 mg/L | 18%
